System: Nc1ncnc2c1ncn2[C@@H]1O[C@H](COP(=O)(O)OP(=O)(O)OP(=O)(O)O)[C@@H](O)[C@H]1O
Experiment: purified protein
Conditions: pH 7.0; 30.0 °C

KFDV NS5 (Kyasanur Forest disease virus)
Km: 42.15 ± 5.81 µM

Source: paper doi:10.1101/2022.06.29.498065v2
